In general, Kd refers to the equilibrium constant for the complex coming apart. As usually defined, the koff is the first-order rate constant of dissociation. The kon is the rate constant with which the complex forms.

Test [1] concerns the target T1, FSH humaine recombinante Gonal-F (recombinant human FSH, Merck Serono) (human, UniProt P01215 25-116; P01225 19-129).
T1 construct: Commercial recombinant preparation; also called hFSH Gonal F; hFSH
The test can be described thus: SPR (Biacore T100), A8 captured on anti-mouse Fc, hFSH injected 1,56 to 50nM. A general note: In SPR one partner is held on a chip, and binding of the other changes the refractive index at the surface.

Test [2] concerns the target T2, hCG Endo 5000 (purified human chorionic gonadotropin, Schering-Plough) (human, UniProt P01215 25-116; P0DN86 21-165).
T2 construct: Commercial preparation; also called Gonadotropine Chorionique Endo5000
The test can be described thus: ELISA saturation binding, Kd estimated with GraphPad Prism (one site - specific binding).

Test [3] deals with T3, hCG Chorulon (human chorionic gonadotropin extracted from urine, MSD) (human, UniProt P01215 25-116; P0DN86 21-165).
T3 construct: Commercial preparation
T3 sequence (P01215 25-116 limits assumed, chain 1 of 2, other chains not shown): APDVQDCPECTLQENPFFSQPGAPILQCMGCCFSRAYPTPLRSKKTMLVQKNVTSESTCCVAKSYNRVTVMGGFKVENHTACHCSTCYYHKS
Described as above.

Test [4] addresses T4, eCG commerciale Chronogest (MSD) (equine, UniProt P01220 25-120; P08751 21-169).
T4 construct: Commercial preparation; also called eCG Chronogest
The test is described as above.

Test [5] deals with T1, FSH humaine recombinante Gonal-F …. The test can be described thus: SPR (Biacore T100), A8 captured on anti-mouse Fc, hFSH injected.
The target in test [6] is T5, FSH ovine dimérique (ovine follicle-stimulating hormone) (ovine, UniProt P01218 25-120; P01227 20-129). The test is described as follows: cell-based or functional assay.
In test [7] the target is T5, FSH ovine dimérique (ovine …). The test is described as follows: SPR (Biacore T100), A8 captured on anti-mouse Fc, oFSH injected.
Test [8] has the same target. The test is described as follows: SPR (Biacore T100), A8 captured on anti-mouse Fc, oFSH injected 1,56 to 50nM.

T1 sequence (P01215 25-116 limits assumed, chain 1 of 2): as the sequence (P01215 25-116 limits assumed, chain 1 of 2, other chains not shown) above
T1 sequence (P01225 19-129 limits assumed, chain 2 of 2): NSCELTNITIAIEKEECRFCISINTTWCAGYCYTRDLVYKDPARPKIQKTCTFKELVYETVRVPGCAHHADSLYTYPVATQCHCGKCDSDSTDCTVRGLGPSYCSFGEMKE
T2 sequence (P01215 25-116 limits assumed, chain 1 of 2, other chains not shown): as the sequence (P01215 25-116 limits assumed, chain 1 of 2, other chains not shown) above
T4 sequence (P01220 25-120 limits assumed, chain 1 of 2): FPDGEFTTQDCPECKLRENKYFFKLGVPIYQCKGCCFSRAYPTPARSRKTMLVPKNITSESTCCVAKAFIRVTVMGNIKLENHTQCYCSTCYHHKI
T4 sequence (P08751 21-169 limits assumed, chain 2 of 2): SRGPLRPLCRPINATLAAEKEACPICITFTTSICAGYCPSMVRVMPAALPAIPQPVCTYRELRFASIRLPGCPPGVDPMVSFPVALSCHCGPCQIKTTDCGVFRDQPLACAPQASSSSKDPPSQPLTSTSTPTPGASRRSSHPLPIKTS

B1: anticorps monoclonal A8 (monoclonal antibody A8, hybridoma CNCM I-4828) (antibody, V domains shown)
VH: EVQLQESGGGLVQPGGSRKLSCAASGFTFSDFGTHWIRQAPEKGLEWVAYISSGSSTRYYADTVKGRFTISRDDPKNTLFLQMTSLRSEDTAMYYCARSYDGYHVPSFAYWGQGTLVTVSA
VL: DVLMTQTPLSLSVSLGDQASISCRSSQNIVHSNGNTYLEWYLQKPGQSPKLLIYRVSNRFSGIPDRFSGSSSGTDFTLKISRVEAEDLGVYYCFQGSHVPLTFGAGTKLELK
notes: Purified antibody or hybridoma supernatant, depending on the assay; also called AcM A8; ligand A8
Regarding B1, the Kd in test [1] is 4.7 nM; in test [2] it was around 100 nM; in test [3], around 100 nM; in test [4], around 100 nM; in test [8] it was 6.3 nM. Besides, the figures for the koff in test [5] and in test [7] were 0.0011 s⁻¹ and 0.00082 s⁻¹, respectively. The kon is 240000 M⁻¹ s⁻¹ in test [5] and 130000 M⁻¹ s⁻¹ in test [7]. The “sécrétion d'AMPc (cAMP secretion), bovine granulosa cells, oFSH 3ng/ml” value in test [6] came to 2.1 fold. In test [6], the “sécrétion d'AMPc (cAMP secretion), bovine granulosa cells, oFSH 12,5 ng/ml” value was determined as 1.5 fold.

These data come from patent publication WO2016038310A1 (dated 2016).
